# Literature values, collected in paper PMC9502310.
# Target: IL-1β (Homo sapiens) (UniProt P01584)
substance,measurement,value
B15 (from UniProt P25212),Kd,0.234 nM
